Laboratory results from ChEMBL document CHEMBL1126004, “Synthesis and resolution of 7-fluorotryptophans” (Bioorg Med Chem Lett, 1991).

Tests used:
[1] = substrate: N[C@@H](Cc1c[nH]c2c(F)cc(F)cc12)C(=O)O; experiment: (§1) Compound was evaluated for relative maximum velocity (Vmax) in a reaction with tryptophan indole-lyase (tryptophanase) from Escherichia coli
[2] = substrate: N[C@@H](Cc1c[nH]c2ccccc12)C(=O)O; experiment: as §1
[3] = substrate: N[C@@H](Cc1c[nH]c2c(F)cccc12)C(=O)O; experiment: as §1
[4] = substrate: N[C@@H](Cc1c[nH]c2c(F)ccc(F)c12)C(=O)O; experiment: as §1
[5] = substrate: N[C@@H](Cc1c[nH]c2c(F)cc(F)cc12)C(=O)O; experiment: (§2) Compound was evaluated for Michaelis-Menten constant (Km) in a reaction with tryptophan indole-lyase (tryptophanase) from Escherichia coli
[6] = substrate: N[C@@H](Cc1c[nH]c2ccccc12)C(=O)O; experiment: as §2
[7] = substrate: N[C@@H](Cc1c[nH]c2c(F)cccc12)C(=O)O; experiment: as §2
[8] = substrate: N[C@@H](Cc1c[nH]c2c(F)ccc(F)c12)C(=O)O; experiment: as §2

B1: Tryptophan 2,3-dioxygenase (Homo sapiens), P48775 (protein)
chain: MSGCPFLGNNFGYTFKKLPVEGSEEDKSQTGVNRASKGGLIYGNYLHLEKVLNAQELQSETKGNKIHDEHLFIITHQAYELWFKQILWELDSVREIFQNGHVRDERNMLKVVSRMHRVSVILKLLVQQFSILETMTALDFNDFREYLSPASGFQSLQFRLLENKIGVLQNMRVPYNRRHYRDNFKGEENELLLKSEQEKTLLELVEAWLERTPGLEPHGFNFWGKLEKNITRGLEEEFIRIQAKEESEEKEEQVAEFQKQKEVLLSLFDEKRHEHLLSKGERRLSYRALQGALMIYFYREEPRFQVPFQLLTSLMDIDSLMTKWRYNHVCMVHRMLGSKAGTGGSSGYHYLRSTVSDRYKVFVDLFNLSTYLIPRHWIPKMNPTIHKFLYTAEYCDSSYFSSDESD
[1]
  Vmax: 58%
[2]
  Vmax: 100%
[3]
  Vmax: 29%
[4]
  Vmax: 42%
[5]
  Km: 490 µM
[6]
  Km: 260 µM
[7]
  Km: 640 µM
[8]
  Km: 1700 µM
